Tests used:
[1] = test system: AcGFP-MyoVa-GTD; test: FLIM-FRET at vesicle membranes in HeLa cells; format: cell-based, Mus musculus; conditions: AcGFP-MyoVa-GTD donor
Description: Fluorescence lifetimes were imaged with a commercial FLIM upgrade kit (PicoQuant, Berlin, Germany) attached to a confocal microscope LSM 880 (Zeiss, Jena, Germany) using a 440 nm pulsed laser diode at 20 MHz repetition rate. The fluorescence was detected using the Big.2-unit (Zeiss) fed into the TimeHarp 260 photon counting board (PicoQuant). Time series of FLIM images were recorded until bright pixels accumulated at least 1000 photon events. Before pixel wise fitting (Symphotime, 64-bit, version 2, PicoQuant), a region of interest was defined manually by setting a threshold for selecting pixels of high intensity (100–300 photon events per pixel). Fitting employed an exponential two-component model to 20 ns of the decay without binning. Lifetime images contained the color coded, intensity weighted average in each pixel.
For an improved automated selection of vesicular structures in cells, we followed a previously established semi-automated approach ([Austen et al., 2015]). Briefly, confocal imaging was done using a Leica TCS SP5 X confocal microscope equipped with a pulsed white light laser (WLL, 80 MHz repetition rate; NKT Photonics, Birkerod, Denmark), a FLIM X16 TCSPC detector (LaVision Biotec, Bielefeld, Germany) and a 63x water objective (HCX PL APO CS, NA = 1.2). A band-pass filter 514/30 (AHF Analysentechnik, Tübingen, Germany) was used to block acceptor emitted photons. Data analysis includes manual selection of the cytoplasmic regions followed by a threshold algorithm, segmenting high intensity regions based on spatial signal changes at varying levels. The custom-written MATLAB program ([Austen et al., 2015]) calculates the average FRET efficiency E according to E = 1−τDA/τD
with τD as the mean donor lifetime τDA as mean donor lifetime in presence of an acceptor fluorophore. E represents the entire ROI of a single cell. Here, fitting employed an exponential one-component fit to 10 ns of decay; the first 0.5 ns were omitted due to the instrumental response. […]

[2] = test system: HeLa cells; test: Subcellular localization by fluorescence microscopy; format: cell-based
Description: HeLa cells were seeded on microscope cover glasses and transfected with Myc-epitope-tagged Spir-2 proteins and fluorescently-tagged MyoV and Rab11 proteins as described above. Cells were fixed with paraformaldehyde (3.7% in 1x PBS) for 20 min at 4°C and subsequently permeabilized using 0.2% Triton X-100 (in 1x PBS) for 3.5 min, room temperature. Cells were incubated with anti-c-Myc antibody (9E10, mouse monoclonal, 2 µg/ml, Santa Cruz Biotechnology; RRID: AB_627268) for 1 hr at room temperature and conjugated anti-mouse secondary antibodies (Cy5; from donkey, 3.25 µg/ml, Dianova (RRID: AB_2340820) and TRITC; from donkey, 3.125 µg/ml, Dianova (RRID: AB_2340767)) for 1 hr at room temperature avoiding exposure to light. Finally, cells were mounted on microscope slides with Mowiol and analyzed with a Leica AF6000LX fluorescence microscope, equipped with a Leica HCX PL APO 63x/1.3 GLYC objective and a Leica DFC350 FX digital camera (1392 × 1040 pixels, 6.45 × 6.45 µm pixel size). 3D stacks were recorded and processed with the Leica deconvolution software module. In case of the MyoVa autoregulation/activation experiments, we quantified the MyoVa expression levels. […] In order to clearly distinguish between vesicular and cytoplasmic MyoVa localization, we imaged either high or low expressing cells and determined the sum of pixel gray values per cell as a measure for the MyoVa expression levels. Based on that, we only used cells for the autoregulation analysis having a sum of pixel gray values less than 20 × 10^6 for the expression of GFP-MyoVa-D-FL. Images were recorded using the Leica LASX software and further processed with Adobe Photoshop and subsequently assembled with Adobe Illustrator.

[3] = test system: Spir-2:MyoVa:Rab11 tripartite complex; test: Analytical gel filtration; format: binding, Homo sapiens; conditions: Superdex 200 10/30; 50 mM Tris pH 8.0, 150 mM NaCl, 2 mM MgCl2, 2 mM TCEP
Description: Complex formations were analyzed by analytical gel-filtration using Superdex 200 10/30 Increase column (GE Healthcare Life Sciences) and UV light absorbance at 280 nm and 260 nm and Visible light absorbance at 587 nm at flow rate of 0.75 ml/min in 50 mM Tris pH 8.0, 150 mM NaCl, 2 mM MgCl2, 2 mM TCEP buffer. Fractions of 500 µl were collected and analyzed by SDS-PAGE.
A 100 µl sample of His6-Rab11a-1-173-Q70L at 6 mg/ml, or of MyoVa-GTD at 5 mg/ml or of His6-mCherry-Spir-2-linker at 6 mg/ml were centrifuged at 10,000 x g for 10 min and injected into the column to monitor reference elution profiles of the individual proteins. The proteins were mixed pairwise to the same final concentrations and incubated 30 min at 4°C in a total volume of 100 µl. The two-component complexes (His6-mCherry-Spir-2-linker:MyoVa-GTD and MyoVa-GTD:His6-Rab11a-1-173-Q70L) were confirmed by the elution peak shifts and SDS-PAGE analysis. […] The tripartite His6-mCherry-Spir-2-linker:MyoVa-GTD:His6-Rab11a-1-173-Q70L complex was analyzed at the same concentration of the individual components and confirmed by SDS-PAGE.

[4] = target: T1, MyoVa-GTD (Homo sapiens, UniProt Q9Y4I1); test: Surface plasmon resonance, Rab11a captured; format: binding
T1 construct: aa 1461 - 1853 (BamHI / XhoI); His6 (6xHis) with rTEV site (N, cleaved yes); made in house; host or cells: Escherichia coli BL21(DE3) or BL21-CodonPlus-RILP
Description: The assays were carried out at 25°C in buffer (50 mM Hepes pH 7.5, 100 mM NaCl, 2 mM MgCl2, 1 mM TCEP). 200–250 resonance units (RU; 1RU ≈ 1 pg × mm^−2) of Rab11a-Q70L(GTP) or Rab11-wt(GDP) were captured through their His6-tag on the surface of a NTA sensorchip using a Biacore 2000 instrument (GE Healthcare Life Sciences). MyoVa-GTD or MyoVb-GTD (10 nM–5 µM) were then injected over the tethered Rabs for one minute at a flow rate of […]. The surface was regenerated with a 2-min 0.3 M EDTA incubation and a 1-min 0.1% SDS wash. The real-time interaction profiles were double referenced using the Scrubber 2.0 software (BioLogic Software, Campbell, Australia), both the signals from a reference surface (with a non-relevant protein captured on NTA) and from blank experiments using buffer instead of MyoV-GTD were subtracted. The MyoV-GTD concentration-dependence of the steady-state SPR signals was then analyzed to determine the dissociation equilibrium constants (Kd) of the different complexes using the numerical integration algorithm software Biaevaluation 4.1. Each experiment (10 point 2-fold dilution concentration series each) was repeated in triplicate, yielding mean Kd values and standard errors (SEM).

T1 sequence (Q9Y4I1 1463-1855): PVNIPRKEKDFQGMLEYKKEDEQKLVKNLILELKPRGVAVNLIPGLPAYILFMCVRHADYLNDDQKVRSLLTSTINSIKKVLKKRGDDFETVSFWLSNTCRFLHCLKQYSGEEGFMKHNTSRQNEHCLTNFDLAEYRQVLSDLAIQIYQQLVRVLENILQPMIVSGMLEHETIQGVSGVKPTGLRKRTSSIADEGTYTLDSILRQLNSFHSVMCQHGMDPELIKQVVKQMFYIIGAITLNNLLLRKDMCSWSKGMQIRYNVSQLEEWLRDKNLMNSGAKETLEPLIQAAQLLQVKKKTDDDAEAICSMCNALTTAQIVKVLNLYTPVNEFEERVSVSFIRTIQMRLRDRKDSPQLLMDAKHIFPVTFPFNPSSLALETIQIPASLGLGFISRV

B1: mStrawberry-Spir-2-SB-FYVE: mStrawberry-hs-Spir2-SB-FYVE aa 438 - 714 (protein)
chain: DRSFSEHDLAQLRSEVASGLQSATHPPGGTEPPRPRAGSAHVWRPGSRDQGTCPASVSDPSHPLLSNRGSSGDRPEASMTPDAKHLWLEFSHPVESLALTVEEVMDVRRVLVKAEMEKFLQNKELFSSLKKGKICCCCRAKFPLFSWPPSCLFCKRAVCTSCSIKMKMPSKKFGHIPVYTLGFESPQRVSAAKTAPIQRRDIFQSLQGPQWQSVEEAFPHIYSHGCVLKDVCSECTSFVADVVRSSRKSVDVLNTTPRRSRQTQSLYIPNTRTLDFK
modifications: left off: mStrawberry, end not stated, kept
fluorescence lifetime / FRET result in words [1]: did not alter the lifetime

B2: Myc-Spir-2-KIND-WH2-GTBM: Myc-hs-Spir2-KIND-WH2-GTBM aa 2 - 437 (protein, UniProt Q8WWL2 2-437, looked up, fragment)
chain: ARAGSCGGAAAGAGRPEPWELSLEEVLKAYEQPLNEEQAWAVCFQGCRGLRGSPGRRLRDTGDLLLRGDGSVGAREPEAAEPATMVVPLASSEAQTVQSLGFAIYRALDWGLDESEERELSPQLERLIDLMANNDSEDSGCGAADEGYGGPEEEEEAEGVPRSVRTFAQAMRLCAARLTDPRGAQAHYQAVCRALFVETLELRAFLARVREAKEMLQKLREDEPHLETPRAELDSLGHTDWARLWVQLMRELRRGVKLKKVQEQEFNPLPTEFQLTPFEMLMQDIRARNYKLRKVMVDGDIPPRVKKDAHELILDFIRSRPPLKQVSERRLRPLPPKQRSLHEKILEEIKQERRLRPVRGEGWAARGFGSLPCILNACSGDAKSTSCINLSVTDAGGSAQRPRPRVLLKAPTLAEMEEMNTSEEEESPCGEVTLKR
modifications: Myc tag
subcellular localization in words ([2]; co-expression of eGFP-MyoVa-FL and N-terminal Spir-2 fragment): both proteins localize to vesicle membranes | subcellular localization in words ([2]; single expression): even cytoplasmic and nuclear localization

B3: Rab11a-Q70L: hs-Rab11a-Q70L aa 1 - 173, GTP-locked mutant (protein)
chain: MGTRDDEYDYLFKVVLIGDSGVGKSNLLSRFTRNEFNLESKSTIGVEFATRSIQVDGKTIKAQIWDTAGLERYRAITSAYYRGAVGALLVYDIAKHLTYENVERWLKELRDHADSNIVIMLVGNKSDLRHLRAVPTDEARAFAEKNGLSFIETSALDSTNVEAAFQTILTEIY
modifications: left off: His6, N-terminal, kept
notes: hs-Rab11a-Q70L aa 1 - 173, GTP-locked mutant
co-elution in gel filtration in words [3]: co-elution of all three proteins

B4: mStrawberry-Spir-2-GTBM-SB-FYVE: mStrawberry-hs-Spir2-GTBM-SB-FYVE aa 361 - 714 (protein)
chain: GEGWAARGFGSLPCILNACSGDAKSTSCINLSVTDAGGSAQRPRPRVLLKAPTLAEMEEMNTSEEEESPCGEVTLKRDRSFSEHDLAQLRSEVASGLQSATHPPGGTEPPRPRAGSAHVWRPGSRDQGTCPASVSDPSHPLLSNRGSSGDRPEASMTPDAKHLWLEFSHPVESLALTVEEVMDVRRVLVKAEMEKFLQNKELFSSLKKGKICCCCRAKFPLFSWPPSCLFCKRAVCTSCSIKMKMPSKKFGHIPVYTLGFESPQRVSAAKTAPIQRRDIFQSLQGPQWQSVEEAFPHIYSHGCVLKDVCSECTSFVADVVRSSRKSVDVLNTTPRRSRQTQSLYIPNTRTLDFK
modifications: left off: mStrawberry, end not stated, kept
fluorescence lifetime / FRET result in words [1]: able to reduce the fluorescence lifetime

B5: Spir-2-GTBM-SB-FYVE-LALA: mStrawberry-hs-Spir2-GTBM-SB-FYVE-L408A,L409A (protein)
chain: GEGWAARGFGSLPCILNACSGDAKSTSCINLSVTDAGGSAQRPRPRVAAKAPTLAEMEEMNTSEEEESPCGEVTLKRDRSFSEHDLAQLRSEVASGLQSATHPPGGTEPPRPRAGSAHVWRPGSRDQGTCPASVSDPSHPLLSNRGSSGDRPEASMTPDAKHLWLEFSHPVESLALTVEEVMDVRRVLVKAEMEKFLQNKELFSSLKKGKICCCCRAKFPLFSWPPSCLFCKRAVCTSCSIKMKMPSKKFGHIPVYTLGFESPQRVSAAKTAPIQRRDIFQSLQGPQWQSVEEAFPHIYSHGCVLKDVCSECTSFVADVVRSSRKSVDVLNTTPRRSRQTQSLYIPNTRTLDFK
modifications: left off: mStrawberry, end not stated, kept
notes: mStrawberry-hs-Spir2-GTBM-SB-FYVE-L408A,L409A
fluorescence lifetime / FRET result in words [1]: did not alter the lifetime

B6: Rab11GDP: Rab11-wt(GDP) captured through its His6-tag (protein)
chain: MGTRDDEYDYLFKVVLIGDSGVGKSNLLSRFTRNEFNLESKSTIGVEFATRSIQVDGKTIKAQIWDTAGQERYRAITSAYYRGAVGALLVYDIAKHLTYENVERWLKELRDHADSNIVIMLVGNKSDLRHLRAVPTDEARAFAEKNGLSFIETSALDSTNVEAAFQTILTEIYRIVS
modifications: left off: His6, N-terminal, kept
notes: Rab11-wt(GDP) captured through its His6-tag
Kd ([4]; MyoVa-GTD 10 nM–5 µM over captured Rab11a-Q70L(GTP) or Rab11-wt(GDP), 50 mM Hepes pH 7.5, 100 mM NaCl, 2 mM MgCl2, 1 mM TCEP, 25°C, steady state, mean ± SEM, N = 3, read-out: dissociation equilibrium constant (Kd)): 2620 ± 490 nM | affinity in words ([4]; Rab11-GDP for MyoVa): relatively high affinity
